Results published in the DeepSol protein solubility set.

Assay: soluble on expression in E. coli; label from the status in PepcDB or PDB records

For “PSSSQSEEKAPELPKPKKNRCFMCRKKVGLTGFDCRCGNLFCGLHRYSDKHNCPYDYKAEA”, which “soluble on expression in E. coli” value is on record?
Its value is “soluble”.

Which “soluble on expression in E. coli” value does the source give for “MSEKPAESAAAVADSATTTAPQSGKPETALPALIDTQATAETRALYRNLAKLRYKHLLFGHEDSLAYGVHWEGDMDRSDVRDVTGANPAVYGWELGGLELGHTANLDAVNFEKMQHWIKAGYSRGGVITISWHVFNPVSGGNSWDKTPAVHELIPGGARHATLKAYLDTFVAFNEGLADVDAQGNKHYPPIIFRPWHEHNGDWFWWGKGHASEQDYIALWRFTVHYLRDEKKLRNLIYAYSPDRSRIDMANFEAGYLYGYPGDAYVDIIGLDNYWDVGHEANTASADEQKAALTASLKQLVQIARSKGKIAALTETGNNRLTIDNFWTERLLGPISADADASEIAYVMVWRNANLAREKSEQFFAPFPGQATADDFKRFYQSEVVLFEDELPPLYR” here?
The value was “soluble”.

Which “soluble on expression in E. coli” value does the source give for “MAKRVVSVSLGSSRRDAAAEVELLGERVLLERRGTDGDFQRALCLIQELDGKVDAIGLGGIDLYLFAGGRRYAIRDALRLKEAAKKTPVVDGSGLKHTLERRAVRELASLIDWRKTKVLLPSAVDRFGLAEALDEAGARVLYGDFIFALGLPIPLYSLSFLQKLAFLLLPLFTRLPFSVLYPTGKKQEEVREDWRARYYAWADVVAGDWHYVRRHMPKDMRGKTVITNTTTEEDVAFLRERGVRRLVTTTPRLGGRSFGTNVMEAMLVALAGRELGEADYLRYIDQIGLKPQVLELKGQA” here?
Its value is “soluble”.

For “METASITEWTFVQEVPIPEDVANLMVPGEDAVVAFKTFRDSAIFTTKRLIVRDSQGLRGKKVEVYSLPYSSVNMWSTENAGTFDFNAEVELWTRAGKIKIKIGRDLDVRRLDMLLAQCILG”, which “soluble on expression in E. coli” value is on record?
Its value is “not soluble”.

Which “soluble on expression in E. coli” value does the source give for “GPGSMSKYANPDYWEERYRSNDTTFDWYLTFDNLEPVLRPMLQPAEQIHVLVVGCGNSRLSPCMYEHLNVRKITNVDVSPTVISQMTRRYKGMDEMRWICCDLIHTAPDKLLTLLCPEDALFDFVIDKGLVDATLGGSNSFHNLYTLTKNLARVMKNGGRFLSVSYGAPETRIDHFRRRKLNFDVEHRTIEKSVFASGAAPTGSYHVYIMTKLGERQAVTAGAADDGALSGDTDDDDDFYDRFMTKANTTSADAARFD” here?
The value was “soluble”.

With “MGSDKIHHHHHHMTYARKPVADAGIGVGIADDPASLSVLHKPGCAAAIWRRHIPSQAKTWLEGLDPSQLPTGRQMVRPDGVRHAVRDFCKRADTPLGDDLDWLQNDMSMLAEMFAQVMSARVLRLRLDAISTNACSRFHIDAVTARLVCTYRGSGTQYGISTDGRAPRRVFQVATGAPILLRGTLWPEDPPSGVLHRSPPIAGTGETRLVMVLDPIFDPDNGP” as the sequence, how does the “soluble on expression in E. coli” value read?
The value was “not soluble”.

Which “soluble on expression in E. coli” value does the source give for “MAHHHHHHMADSIKSSNSFQKLDNIDAKETSTVDRKWVALTAYQPVDVVTKTVEVPIIKTVEKYVPKTIIQEKIIHVPKNVTHIVEKIVEVPEVKYIEKIVEVPHIHYKNKYVPKIEIVEKVVERQKIIEKWHDKIVEVPQIKEVVRFKQIEDSEEIIKYVPRNSKNIDWEDEYKKYTESKGLQRYSLDQNNIYQQANSFNQFNENAYNQNAFNRSYELLNKQSSVKSQNNASGENFSQMNFYNQYSGANFEQERSIQASNFEPSGSMQLKRLSSEEIKPAGCCSAACT” here?
The value was “soluble”.

With “MYKAFYGLSDNPFSIAPNPHYLFLSDRHREALAHLTYGLGETGGFVLLTGEVGTGKTTVSRCLLGQLPDNTDTAFILNPSLTELELLATLCDELKISYGENPTLKQLTDHLSRFLLANHEKGRKTVLIIDEAQHLRAEVLEQLRLLTNLETDTKKLLQVILIGQPELQLLLKRQELRQLAQRITARYHLLPLNEDEITLYVLHRLQVAGRFEPLFTRKAIKVLHKYSGGIPRLINLLCERALMAGYAQSKVPIDHHMVRQAAAEVLGEEKPSQNKFLWPSAIAAALVLTFGVSYWLFTDHAVVATVANENVTQPKQTVIAENAVQQSQTALTNTAPAITLAQTPAAPDPNLRVLQEAIKQSRQIDTAFAGLFNVWGKVPFKGLTACQSAFEQGLSCYQQQGNWMSLTRLNYPAVVYLVDDNQQDFYGAVIAVDGEQLLMQLGEQQLWVERTWFNQHFSGTFEILWQAPNLPMMEISQKSSPGQLQWLENALAHVAKRPSRRVSQFDLKLENDLKAFQSQHGLKADGIAGNQTLVRLNLYLSDQGPRLTDNGAQS” as the sequence, how does the “soluble on expression in E. coli” value read?
The value was “not soluble”.

For “MAVKKIAIFGATGQTGLTTLAQAVQAGYEVTVLVRDSSRLPSEGPRPAHVVVGDVLQAADVDKTVAGQDAVIVLLGTRNDLSPTTVMSEGARNIVAAMKAHGVDKVVACTSAFLLWDPTKVPPRLQAVTDDHIRMHKVLRESGLKYVAVMPPHIGDQPLTGAYTVTLDGRGPSRVISKHDLGHFMLRCLTTDEYDGHSTYPSHQYQ”, which “soluble on expression in E. coli” value is on record?
Its value is “soluble”.

With “MSLPNRLLITNASIAKMDEPDDGYGLMMHAALLIQDEKIEWLGSVSDIPAGLGDPEELDACGRLLTPALIDCHTHIVHGGNRAREFEMRLEGASYEEIARAGGGIISTVTATRETDEAALLQDALKRADSLIAEGVSLIEIKSGYGLDVETELKMLRVARAIERERSVRVVTSFLGAHAVPKGADADFYIDKVCIPALEAAHKEGLVDAVDGFCEGIAFDTVQMGRLFERARQLDIPVKLHAEQLSNIGGTKLAASYNALSVDHVEYADKTDIAAMAKAGSVAVLLPGAFYTLHETQKPLVEAFRSESVPMAVATDWNPGSSPMGSLLLAMNMSCTLFGLTPVEALAGTTRNAARALGLKDCGIVAPGKRADLAIWDVLEPAELSYRFGVNPLHRRIFGGRLEGHHHHHH” as the sequence, how does the “soluble on expression in E. coli” value read?
Its value is “soluble”.

For “MIIGYFDGLCEPKNPGGIATFGFVIYLDNRKIEGYGLAEKPFSINSTNNVAEYSGLICLMETMLRLGISSPIIKGDSQLVIKQMNGEYKVKAKRIIPLYEKAIELKKKLNATLIWVPREENKEADRLSRVAYELVRRGKLRDIGCIILT”, which “soluble on expression in E. coli” value is on record?
The value was “soluble”.

For “MGHHHHHHSHMSQHGQSCLSLAGTIDCSVPDILLKSGVIGLAQWLTPVIPALWETEAGGSLEVRSSRPAWPTWRNPISTKNTKISQTWWRMPVVLATWEAEAGESVNLGGRGCSELRRCRCTPAWATRAKLHLRKNKNKNNGVTKT”, which “soluble on expression in E. coli” value is on record?
The value was “not soluble”.

For “MPILNLNNFLAALGNTPDYGRLFARAEHLAQVQKHLLNAVPFQLRNQCTVGQYTADGLLVIYAGNGTTATRLRHLAPSIRQKMNNAGVKVENIRFSIQPQLHSLESGNVREITRSLSQTAIEHLDKLSDSLPAGSPLQSSLAALLANSRRK”, which “soluble on expression in E. coli” value is on record?
The value was “not soluble”.

For “MSEEAQPITLEAFAEAIRELPLSAVYAKVSEIRNSIAHLRRSNSELKAFIDETCESESDKRELEGYIAENEGVIATMNDRIGLLKTEIESRGERWIEEEIEANIKVDGDEVSTSQPIINGTAGDERPRAHEDATRRPEDRQTNEEEGVYL”, which “soluble on expression in E. coli” value is on record?
Its value is “not soluble”.

For “MAHHHHHHSLNVLKDKLSGKNVKIVLPEGEDERVLTAATQLQATDYVTPIVLGDETKVQSLAQKLDLDISNIELINPATSELKAELVQSFVERRKGKATEEQAQELLNNVNYFGTMLVYAGKADGLVSGAAHSTGDTVRPALQIIKTKPGVSRTSGIFFMIKGDEQYIFGDCAINPELDSQGLAEIAVESAKSALSFGMDPKVAMLSFSTKGSAKSDDVTKVQEAVKLAQQKAEEEKLEAIIDGEFQFDAAIVPGVAEKKAPGAKLQGDANVFVFPSLEAGNIGYKIAQRLGGYDAVGPVLQGLNSPVNDLSRGCSIEDVYNLSIITAAQALQEG”, which “soluble on expression in E. coli” value is on record?
The value was “soluble”.

Which “soluble on expression in E. coli” value does the source give for “SHMAGLEVLFASAAPAITCRQDALVCFLHWEVVTHGYCGLGVGDQPGPNDKKSELLPAGWNNNKDLYVLRYEYKDGSRKLLVKAITVESSMILNVLEYGSQQVADLTLNLDDYIDAEHLGDFHRTYKNSEELRSRIVSGIITPIHEQWEKANV” here?
Its value is “soluble”.

Which “soluble on expression in E. coli” value does the source give for “VTVHSTPVRRSSGPAPQSLLSARRVSALPTPASRRCSGLPPMTPKTMPRAVGSPLCVPARRRSSEPRKNSAMRTEPTRESNRKTDSRLVDVSPDRGSPPSRVPQALNFSPEESDSTFSKSTATEVAREEAKPGGDAAPSEALLVDIKLEPLAVTPDAASQPLIDLPLIDFCDTPEAHVAVGSESRPLIDLMTNTPDMNKNVAKPSPVVGQLIDLSSPLIQLSPEADKENVDSPLLKF” here?
Its value is “not soluble”.

For “MGSDKIHHHHHHMTRSTIGGKRFEPIPARFSSIGAGLMNIKQLEVLRTLLSTGSTIATAKAMGLSQSGISRLLAQLEADLSLTLFARDKGRLIPTPEAALLARDAENVLLAVDRMSGHAEDLRNGAAGPEIVRIGLPSSMWENFAPAMLIDYVRDFPGVRIETFFETTTAINKLVGERVIDLGFLRMEGEIGPGIDVERVATGKSVCVVREDHPLADLQEITVKDLRNIPLILIGRQRPNRMALDQVFKKAGVKPMVKIETHTNSSACAYVAHGLGVTIISSFYANLYRHLPVVARPFVPQATQEFGLARASGAPLSIAAQALSNALKREIQLSQKID”, which “soluble on expression in E. coli” value is on record?
The value was “not soluble”.

For “MGSDKIHHHHHHMKKLLFIVNVDWFFISHRLPIAIDALKKGYTVTIACHFTSHKQELIDMGFNVLEIPFSRSGAGILSELNTLKCIRKVINDVNPSLIHAVTIKPVLYTGLVLKSINRNIPFVAAISGLGYVFTASTLRAKLTRFIASAFYKVALSQKYKMVIFQNTSDENILTKVAKLESSDKFLIKGSGADLSVYNFSPENLDNRTSIVMACRLLREKGVYVYVDAAKLVKEHFPEAEFLLVGTPDLENPNTVKQVEIDQWVSDGTIKYLGHRNDIPSIFANSNIVCLPSFYGEGVPKVLIEAAACGRAIVTTDNPGCKDAIINEVTGIAVPVRDAQSLALAIIKLLDDPALRISMGKKGRSFAEQEFDVRAVVTKHLDIYNELLQK”, which “soluble on expression in E. coli” value is on record?
The value was “not soluble”.

With “MAHHHHHHMPETTHVTNDAAVPQKHIVEKPHLMDLFRSSASFAKIIAYLQGCSDSVNGTPRSARMVQKASELHPTVRFFVETFFPHLHKIVEEVPLQDMKKQRFGNRAFRVFHERLEADVGGLMQQLVLTLPARSGERSEEEQRCLAVELAEYIKDSFGNSTRIDYGTGHELHFFVVIMICLEECGDAGGTLQAEPTTIVSLNFPQPAPVLVDKRDRVCRLRQGMVFDVFGAYLTFMRRLQKHYHLEPAGSHGVWGLDDYHHLPFIFGAAQLIGKEVPHKTDDSGNGKGYGAILPKHVCEENAVRLHADEYFYFAQVAWVRENKTGPFFEHSSMLYNISGVESWQKIYTGMVKMYAAEVLSKFNVVQHLLFGTHLPWPPDV” as the sequence, how does the “soluble on expression in E. coli” value read?
The value was “soluble”.

With “MMFGRFTERAQKVLALSQEEAIRIGHNNIGTEHILLGLVREGEGIAAKALIALGLSPEKVQKEVEALIGRGTEASQTVHYTPRAKKVIELSMDEARKLGHSYVGTEHILLGLIREGEGVAARVLNNLGVSLNKARQQVLQLLGSNEASSGHQGGSSTNANTPTLDSLARDLTVVARENRLDPVIGRGKEIQRVIEVLSRRTKNNPVLIGEPGVGKTAIAEGLAQQIVNNEVPETLRDKRVMTLDMGTVVAGTKYRGEFEDRLKKVMDEIRQAGNIILFIDELHTLIGAGGAEGAIDASNILKPSLARGELQCIGATTLDEYRKYIEKDAALERRFQPIHVDEPSLDESTQILKGLRDRYEAHHRVSITDDAIDAAVKLSDRYITDRFLPDKAIDLIDEAASKVRLRSYTTPPNLKELEVKLEEIRKEKDAAVQSQEFEKAASLRDMEQRLREKLEDTKRQWKEQQGKENSEVTVEDIANVVSTWTRIPVSKLAQTETDKLLNLESILHDRVIGQDEAVVAVAKAVRRARAGLKDPKRPIGSFIFLGPTGVGKTELARALAESMFGDEDAMIRIDMSEYMEKHSTSRLVGSPPGYVGYEEGGQLTEKVRRKPYSVVLLDEVEKAHPDVFNILLQVLEDGRLTDSKGRTVDFRNTIVIMTSNVGAEALKRNKHLGFNVQDESRDYSDMKGKVMDELKKAFRPEFLNRIDEIIVFHMLEKKHIQEIVTLMVNQLVNRLKEQEIELHLTEGAISAIADKGFDREYGARPLRRAIQKHVEDRLSEELLKGAIEKGQKVIFDVEGESFVIHSAEKVK” as the sequence, how does the “soluble on expression in E. coli” value read?
Its value is “soluble”.
